Data set [1] in a line: Zeta potential measurement. The class given is physicochemical. As for the experimental part: TT solutions of 200 μM in 1×-DPBS buffer (pH=7.4) were prepared by directly mixing identical volumes of a 400 μM aqueous TT solution and 2×-DPBS buffer (pH=7.4). In some embodiments, solutions at a concentration of 2 mM in PBS buffer (pH=7.4) were prepared and aged overnight prior to zeta potential measurement. TT solutions of 200 μM in 1×-DPBS buffer (pH=5.0) were prepared by mixing identical volumes of a 400 μM aqueous TT solution and 2×-DPBS buffer (pH=5.0), which was pretreated with 6 M HCl. The zeta potential measurements were performed on a Zetasizer Nano ZS90 (Malvern Instruments Ltd., UK). The prepared solutions were loaded in capillary cells and equilibrated for 2 min prior to measurement. The average values and their standard deviations are calculated from three replicate measurements. The zeta potential of the assembled structures was obtained by measuring the electrophoretic movement of the nanostructures under the applied electric field, where the movement velocity is determined by phase analysis light scattering. Variations of the zeta potential value over time were determined by measuring the solutions at different aging time points (1, 2, 4 and 7 days) and are plotted in FIG. 10.

Data set [2] in a line: TEM / cryo-TEM imaging of self-assembled nanostructures (dimensions). The format is physicochemical. The note with it: 2 mM in water.
Data set [3] is described as follows: Drug release and chemical stability of SAPDs in PBS with or without GSH. The class given is physicochemical. As to conditions: for prodrug degraded / conjugates remaining intact: 200 μM; for prodrug degraded: 37° C., 10 mM GSH, within 5 min; for conjugates remaining intact / remaining drugs: without GSH; for conjugates remaining intact: 120 h; for remaining drugs: 96 h. As for the experimental part: Drug release and chemical stability studies of SAPDs. Drug release studies of four SAPDs were performed at a concentration of 200 μM in PBS buffer with or without the reducing agent glutathione (GSH). Briefly, 400 μM stock solutions of SAPDs in water were prepared and aged overnight. Stock solutions containing 2×PBS (20 mM) with or without 20 mM GSH were prepared 1 h before the experiment, and the pH was tuned to 7.4 with NaOH. The prodrug solutions were further diluted to 200 μM with 20 mM (2×) PBS buffer with or without GSH (20 mM) to give final solutions of 200 μM prodrug, 10 mM PBS and with or without 10 mM GSH. Three replicates of each SAPD were prepared with or without GSH and were incubated at 37° C. Samples with GSH were collected at 0 min, 5 min, 10 min, 15 min, 30 min, 1 h and 2 h, while samples without GSH were collected at 0 h, 6 h, 12 h, 24 h, 48 h, 72 h, 96 h and 120 h. To prevent further reaction after sample collection, the collected samples (50 μL each point) were acidified by adding 0.2 μL of 2M HCl, frozen with liquid nitrogen and stored at −30° C. The release profile was determined by analytical RP-HPLC using the following conditions: Varian Pursuit XRs C18 (5 μm, 150×4.6 mm); 362 nm detection wavelength; 1 mL/min flow rate; the gradient began at 15% to 85% acetonitrile containing 0.1% TFA by 15 min and back to initial gradient at 18 min. The calculated data points were plotted as a percentage of the total CPT concentration against time. Representative HPLC traces over time were also integrated for comparison.

Data set [4] in a line: Critical micellization concentration (CMC) via Nile Red encapsulation. The class given is physicochemical. As to conditions: SAPDs, PBS buffer, Nile Red method. As for the experimental part: Nile Red is a hydrophobic, solvatochromic dye that fluoresces intensely upon exposure to hydrophobic environments compared with its strongly quenched and red-shifted fluorescence in aqueous environments. The CMC of the TTs was determined by incubating these molecules at various concentrations with a fixed content of Nile Red. 10 μL of a 1 mM Nile Red stock solution in acetone was added to each microcentrifuge tube to be used, with the acetone allowed to evaporate in a dark area. TT solutions of various concentrations were subsequently added to the Nile Red containing tubes and equilibrated overnight. The emission spectrum for each sample was then recorded on a Fluorolog spectrofluorometer (Horiba Jobin Yvon Inc., Edison, N.J.), acquiring between 580 and 720 nm with an excitation wavelength of 550 nm.
CMC Measurement of SAPDs of TT1. We next assessed the CMC values for each of the designed SAPDs in aqueous solution. […] Experimentally, the CAC is often measured using spectrometry techniques such as circular dichroism (CD) to reveal the presence of intermolecular associations and packing at a much lower concentration. In the case reported here, the CMC values were measured in the PBS buffer using Nile Red as a probe, which fluoresces intensely in hydrophobic environments and is strongly quenched and red-shifted in aqueous media. […]

Data set [5] has as its system U87 MG human brain cancer cells. As to conditions: 48 h incubation, SRB, CPT concentration.
Protocol: The human brain cancer cell line U87 MG was a generous gift from Dr. Wirtz (ChemBE, JHU). DMEM (Invitrogen) containing 10% fetal bovine serum (FBS, Invitrogen) and 1% antibiotics (Invitrogen) was used for the culture of the U87 MG cells. Cancer cells were incubated at 37° C. in a humidified incubator (Oasis, Caron, Marietta, Ohio, USA) with an atmosphere of 5% CO2. […] U87 MG cells were seeded onto 96-well plates (5000 cells/well) and allowed to attach overnight. […] The stock solutions were then diluted with fresh medium to achieve final CPT concentrations of 0.1, 1, 10, 100, 500, 1000, 5000 and 10000 nM. After dilution, the nanotube-containing media were used to incubate cells immediately. Medium containing the same concentration of free CPT ranging from 0.1 to 10000 nM was also used to incubate the cells, with non-treated cells (solvent only) as the control group. In addition, irinotecan at the concentration of 0.1, 1, 5, 10, 50, 100 and 500 μM was employed as a second control. After 48 h incubation, the cell viability was evaluated using the SRB method according to the manufacturer's protocols (TOX-6, Sigma, St. Louis, Mo.).
Data set [6] in a line: Drug release from TT 1 nanotubes with or without GSH. The format is physicochemical. As to conditions: 200 μM. As for the experimental part:
The release of free CPT from TT 1 nanotubes was evaluated in the presence or absence of GSH. Stock solutions of 400 μM of TT 1 in deionized water were prepared and diluted to 200 μM with 20 mM PBS buffer with or without GSH (20 mM). Three replicate experiments were prepared together for both conditions. The solutions were incubated at 37° C. and samples were collected at 0 min, 10 min, 20 min, 30 min, 1 h, 2 h, 4 h, 6 h, 8 h, 12 h and 24 h. For each collected sample, the reductive release was halted by acidification of the solution through the addition of 0.2 μL of 2M HCl. Samples were then frozen with liquid nitrogen and stored at −30° C. until analysis. The amount of released CPT was monitored by RP-HPLC using the following conditions: Varian Pursuit XRs C18 (5 μm, 150×4.6 mm); 362 nm detection wavelength; 1 ml/min flow rate; the gradient began at 90% of mobile phase A (0.1% aqueous TFA) and 10% of mobile phase B (acetonitrile containing 0.1% TFA) increasing to 90% mobile phase B by 15 min and held for another 1 min before decreasing to the initial solvent composition at 20 minutes. Selected time points were characterized and data were plotted as a percentage of the total expected CPT concentration.

The nature of data set [7]: Maximum tolerated dose (MTD) dose escalation study. Also on record: species or system athymic nude mice. As to conditions: female, athymic nude, mouse, in vivo, intravenous, three doses, four days a dose; ½ of single-injection MTD; read-out: MTD of multiple injections.

Consider `CC[C@]1(OC(=O)OCCSSC[C@@H](NC(C)=O)C(=O)N[C@@H](CCCCNC(=O)[C@@H](CSSCCOC(=O)O[C@]2(CC)C(=O)OCc3c2cc2n(c3=O)Cc3cc4ccccc4nc3-2)NC(C)=O)C(=O)N[C@@H](CCCCNC(=O)CCOCCOCCOCCOCCOC)C(=O)N[C@@H](CCCCNC(=O)CCOCCOCCOCCOCCOC)C(=O)N[C@@H](CCCCNC(=O)CCOCCOCCOCCOCCOC)C(=O)N[C@@H](CCCCNC(=O)CCOCCOCCOCCOCCOC)C(N)=O)C(=O)OCc2c1cc1n(c2=O)Cc2cc3ccccc3nc2-1` [SAPD 2], for which, in data set [1] (assembled SAPDs in PBS buffer), the ζ-Potential is recorded as −7.4 mV. Also, the “length of filaments (majority)” value in data set [2] is listed as “less than 400 nm”. Moreover, in data set [3], the prodrug degraded came out at 45%, the conjugates remaining intact came to 87% and the remaining drugs turned out to be 86%. Besides, in data set [4], the CMC amounted to 10.1 µM.
In turn, `CC[C@]1(OC(=O)OCCSSC[C@@H](NC(C)=O)C(=O)N[C@@H](CCCCNC(=O)[C@@H](CSSCCOC(=O)O[C@]2(CC)C(=O)OCc3c2cc2n(c3=O)Cc3cc4ccccc4nc3-2)NC(C)=O)C(=O)N[C@@H](CCCCNC(=O)CCOCCOCCOCCOCCOC)C(=O)N[C@@H](CCCCNC(=O)CCOCCOCCOCCOCCOC)C(=O)N[C@@H](CCCCNC(=O)CCOCCOCCOCCOCCOC)C(=O)N[C@@H](CCCCNC(=O)CCOCCOCCOCCOCCOC)C(=O)N[C@@H](CCCCNC(=O)CCOCCOCCOCCOCCOC)C(=O)N[C@@H](CCCCNC(=O)CCOCCOCCOCCOCCOC)C(N)=O)C(=O)OCc2c1cc1n(c2=O)Cc2cc3ccccc3nc2-1` [SAPD 3] had a ζ-Potential in data set [1] (assembled SAPDs in PBS buffer) of −6.5 mV. In data set [3], the prodrug degraded is 93% and the remaining drugs came to 63%.
In data set [1] (assembled SAPDs in PBS buffer), `CC[C@]1(OC(=O)OCCSSC[C@@H](NC(C)=O)C(=O)N[C@@H](CCCCNC(=O)[C@@H](CSSCCOC(=O)O[C@]2(CC)C(=O)OCc3c2cc2n(c3=O)Cc3cc4ccccc4nc3-2)NC(C)=O)C(=O)N[C@@H](CCCCNC(=O)CCOCCOCCOCCOCCOC)C(=O)N[C@@H](CCCCNC(=O)CCOCCOCCOCCOCCOC)C(=O)N[C@@H](CCCCNC(=O)CCOCCOCCOCCOCCOC)C(=O)N[C@@H](CCCCNC(=O)CCOCCOCCOCCOCCOC)C(=O)N[C@@H](CCCCNC(=O)CCOCCOCCOCCOCCOC)C(=O)N[C@@H](CCCCNC(=O)CCOCCOCCOCCOCCOC)C(=O)N[C@@H](CCCCNC(=O)CCOCCOCCOCCOCCOC)C(=O)N[C@@H](CCCCNC(=O)CCOCCOCCOCCOCCOC)C(N)=O)C(=O)OCc2c1cc1n(c2=O)Cc2cc3ccccc3nc2-1` [SAPD 4] returned a ζ-Potential of −5.9 mV. Also, in data set [3], the prodrug degraded is recorded as 92% and the remaining drugs is listed as 61%.
In general, IC50 refers to the concentration that inhibits the measured activity by half. A lower IC50 goes with inhibition by little substance. One may read the MTD as the highest dose tested that stayed within the study's limit of toxicity. `CC[C@]1(OC(=O)OCCSSC[C@@H](NC(C)=O)C(=O)N[C@@H](CCCCNC(=O)[C@@H](CSSCCOC(=O)O[C@]2(CC)C(=O)OCc3c2cc2n(c3=O)Cc3cc4ccccc4nc3-2)NC(C)=O)C(=O)N[C@@H](CCCCNC(=O)CCOCCOCCOCCOCCOC)C(=O)N[C@@H](CCCCNC(=O)CCOCCOCCOCCOCCOC)C(N)=O)C(=O)OCc2c1cc1n(c2=O)Cc2cc3ccccc3nc2-1` [TT 1]: in data set [5], the IC50 worked out at 0.149 µM. Moreover, the ζ-Potential in data set [1] (1×-DPBS buffer, pH 5.0, 200 μM) is −5 mV. This compound had a ζ-Potential in data set [1] (1×-DPBS buffer, pH 7.4, 200 μM) of −5 mV. In data set [1] (assembled SAPDs in PBS buffer), the ζ-Potential is −6.5 mV. For the same compound, in data set [2], the “diameter of supramolecular filaments” value is recorded as “around 9 nm”. Moreover, the “conjugated CPT released” value in data set [6] (10 mM GSH, 37° C., by 6 h) is roughly 100%. Also, in data set [6] (without GSH, 24 h), the “conjugates degraded (hydrolysis)” value is “less than 10%”. Moreover, the MTD in data set [7] came to 12 mg/kg. Also, in data set [3], the prodrug degraded was 8%, the conjugates remaining intact came to 96% and the remaining drugs is given as 95%. This compound gave a CMC in data set [4] of 2.7 µM.

The values above are taken from US20220211858A1, “TUBULAR SUPRAMOLECULAR POLYMERS” (priority 2019, published 2022).
